Reference: patent WO2021251460A1 (dated 2021)

T1: human Glypican-1 (human, UniProt P35052 24-530)
T1 construct: Endogenous GPC1 on human cancer cell lines: BxPC-3 in the FACS and internalization assays; TE8, TE14, BxPC3, KP-2 and PK-8 in the ADC assay; also called GPC-1; GPC1
T1 sequence: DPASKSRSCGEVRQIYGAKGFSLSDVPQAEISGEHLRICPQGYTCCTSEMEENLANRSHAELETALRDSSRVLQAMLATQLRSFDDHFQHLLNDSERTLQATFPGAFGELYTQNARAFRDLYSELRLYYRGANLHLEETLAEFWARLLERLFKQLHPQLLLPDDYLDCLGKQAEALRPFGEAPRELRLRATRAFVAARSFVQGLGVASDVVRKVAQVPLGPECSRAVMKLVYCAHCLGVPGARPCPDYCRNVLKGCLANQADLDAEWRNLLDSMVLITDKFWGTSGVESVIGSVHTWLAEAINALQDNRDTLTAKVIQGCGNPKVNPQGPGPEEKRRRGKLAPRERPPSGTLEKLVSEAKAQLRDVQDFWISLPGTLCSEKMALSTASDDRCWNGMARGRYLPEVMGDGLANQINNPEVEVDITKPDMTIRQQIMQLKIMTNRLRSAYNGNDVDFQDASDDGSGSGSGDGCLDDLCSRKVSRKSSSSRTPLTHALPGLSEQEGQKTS


Legend:
human Glypican-1 [1] = target: T1, human Glypican-1; experiment: FACS on BxPC-3 cells pre-treated with GPC1-ADC (01a033) MMAE, streptavidin-PE detection
human Glypican-1 [2] = target: T1, human Glypican-1; experiment: FACS titration on BxPC-3 cells, FITC anti-mouse IgG secondary

Row | binding result (human Glypican-1 [1]) | binding result (human Glypican-1 [2]) | Binder
1 | binds |  | biotin-labeled anti-GPC1 antibody 02b006 (antibody, mouse IgG2a, kappa, V domains shown, biotin-labeled (site not given), Detection antibody for GPC1 left on the cell surface in the internalization assay, read out with streptavidin-PE; also called anti-GPC1 mAb (biotin-labeled 02b006); K090-02b006) VH: EVQLVESGGGLVKPGGSRKLSCAASGFTFSDYGMHWVRQAPEKGLEWVAYISSGSSTIYYADTVKGRFTISRDNAKNTLFLQMTSLRSEDTAIYYCVRHSYYNYDIGGYYAMDYWGQGTSVTVSS VL: DIVLTQSPSSLSASLGERVSLTCRASQEISGYLSWLQQKPDGTIKRLIYAASTLDSGVPKRFSGSRSGSDYSLTISSLESEDFADYYCLQYASYPLTFGAGTKLEIKR
2 |  | binds | anti-GPC1 monoclonal antibody (clone K090-01a033) (antibody, mouse IgG2a, kappa, V domains shown, Mouse monoclonal antibody; mouse IgG2a kappa (MOPC173) was used as its isotype control; also called mouse anti-GPC-1 clone 01a033; mouse anti-human Glypican-1 mAb (01a033)) VH: QVQLKQSGPELVKPGASVKISCKASGYSFTGYYMHWVKQSPEKSLEWIGEINPSTGDTTYNQKFKAKATLTVDKSSSTAYMQLKSLTSEDSAVYYCAREKRDDGVFAYWGQGTLVTVSS VL: DIVMSQSPKSMSMSVGERVALSCKASENVGTYVSWYQQKPEQSPKLLIYGASNRYTGVPDRFTGSGSATDFTLTISSVQAEDLADYYCGQSYSYPLTFGAGTKLELKR
3 |  | binds | GPC1-ADC (01a033) MMAE (antibody, mouse IgG2a, kappa, V domains shown, MC-vc-PAB-MMAE on reduced interchain cysteine residues; DAR 3.7 per antibody; MC-vc-PAB-MMAE (maleimidocaproyl-valine-citrulline-p-aminobenzyloxycarbonyl-monomethyl auristatin E) on reduced interchain cysteine residues; DAR 3.7 per antibody, also called GPC1-ADC (MMAE); αGPC1-CL-MMAE) VH: QVQLKQSGPELVKPGASVKISCKASGYSFTGYYMHWVKQSPEKSLEWIGEINPSTGDTTYNQKFKAKATLTVDKSSSTAYMQLKSLTSEDSAVYYCAREKRDDGVFAYWGQGTLVTVSS VL: DIVMSQSPKSMSMSVGERVALSCKASENVGTYVSWYQQKPEQSPKLLIYGASNRYTGVPDRFTGSGSATDFTLTISSVQAEDLADYYCGQSYSYPLTFGAGTKLELKR
